These results are taken from US20210403506A1 (XDCEXPLORER SHANGHAI, published 2021).

Numbered stars: 1 amine (or outer) side, 2 acyl side, 3 side chain; on linkers, the order of the positions; unused ones are H or OH. Square brackets hold non-standard residues; d marks the D form. Primed or numbered codes have the meaning given here. Ends that are not written are not given here. * marks the point of attachment. TP5C = (S)-4,5,6,7-tetrahydrothieno[2,3-c]pyridine-5-carboxylic acid, O=C([C@@H]1Cc2ccsc2CN1[*:1])[*:2]; TP6C = (S)-4,5,6,7-tetrahydrothieno[2,3-c]pyridine-6-carboxylic acid, O=C([C@@H]1Cc2ccsc2CN1[*:1])[*:2]; Bpa = N[C@@H](Cc1ccc(C(=O)c2ccccc2)cc1)C(=O)O; Diphenylacetyl = O=C(C(c1ccccc1)c1ccccc1)*; 1Nal = N[C@@H](Cc1cccc2ccccc12)C(=O)O; 2Nal = N[C@@H](Cc1ccc2ccccc2c1)C(=O)O; dNMeY = CN[C@H](Cc1ccc(O)cc1)C(=O)O; Hydrocinnamoyl = O=C(CCc1ccccc1)*; 3‑phenylpropyl = c1ccc(CCC*)cc1; Tic = O=C(O)[C@@H]1Cc2ccccc2CN1; dTic = O=C(O)[C@H]1Cc2ccccc2CN1; NMeL = CN[C@@H](CC(C)C)C(=O)O; NMeS = CN[C@@H](CO)C(=O)O; Nle = CCCC[C@H](N)C(=O)O; Thz = O=C(O)[C@@H]1CSCN1; dTi1c = not defined here; Aze = O=C(O)[C@@H]1CCN1; Nva = CCC[C@H](N)C(=O)O; Thz′ = not defined here

B1: YW-189 (peptide)
peptide: [dY]FLP[dS]QF[dA][Tic]S-NH2
modifications: N-terminus assumed
SMILES: CC(C)C[C@H](NC(=O)[C@H](Cc1ccccc1)NC(=O)[C@H](N)Cc1ccc(O)cc1)C(=O)N1CCC[C@H]1C(=O)N[C@H](CO)C(=O)N[C@@H](CCC(N)=O)C(=O)N[C@@H](Cc1ccccc1)C(=O)N[C@H](C)C(=O)N1Cc2ccccc2C[C@H]1C(=O)N[C@@H](CO)C(N)=O
B2: YW-114 (peptide)
peptide: [dY]FL[Thz][dS]QF[dA][Tic]S-OH
modifications: N-terminus assumed
SMILES: CC(C)C[C@H](NC(=O)[C@H](Cc1ccccc1)NC(=O)[C@H](N)Cc1ccc(O)cc1)C(=O)N1CSC[C@H]1C(=O)N[C@H](CO)C(=O)N[C@@H](CCC(N)=O)C(=O)N[C@@H](Cc1ccccc1)C(=O)N[C@H](C)C(=O)N1Cc2ccccc2C[C@H]1C(=O)N[C@@H](CO)C(=O)O
B3: YW-117 (peptide)
peptide: [dY]FLP[dS]Q[1Nal][dA][Tic]S-OH
modifications: N-terminus assumed
SMILES: CC(C)C[C@H](NC(=O)[C@H](Cc1ccccc1)NC(=O)[C@H](N)Cc1ccc(O)cc1)C(=O)N1CCC[C@H]1C(=O)N[C@H](CO)C(=O)N[C@@H](CCC(N)=O)C(=O)N[C@@H](Cc1cccc2ccccc12)C(=O)N[C@H](C)C(=O)N1Cc2ccccc2C[C@H]1C(=O)N[C@@H](CO)C(=O)O
B4: YW-118 (peptide)
peptide: [dY]FLP[dS]Q[2Nal][dA][Tic]S-OH
modifications: N-terminus assumed
SMILES: CC(C)C[C@H](NC(=O)[C@H](Cc1ccccc1)NC(=O)[C@H](N)Cc1ccc(O)cc1)C(=O)N1CCC[C@H]1C(=O)N[C@H](CO)C(=O)N[C@@H](CCC(N)=O)C(=O)N[C@@H](Cc1ccc2ccccc2c1)C(=O)N[C@H](C)C(=O)N1Cc2ccccc2C[C@H]1C(=O)N[C@@H](CO)C(=O)O
B5: YW-119 (peptide)
peptide: [dY]FLP[dS]Q[Bpa][dA][Tic]S-OH
modifications: N-terminus assumed
SMILES: CC(C)C[C@H](NC(=O)[C@H](Cc1ccccc1)NC(=O)[C@H](N)Cc1ccc(O)cc1)C(=O)N1CCC[C@H]1C(=O)N[C@H](CO)C(=O)N[C@@H](CCC(N)=O)C(=O)N[C@@H](Cc1ccc(C(=O)c2ccccc2)cc1)C(=O)N[C@H](C)C(=O)N1Cc2ccccc2C[C@H]1C(=O)N[C@@H](CO)C(=O)O
B6: YW-74 (peptide)
peptide: {3‑phenylpropyl}-[dY]FLP[dS]QF[dA][Tic]S-OH
SMILES: CC(C)C[C@H](NC(=O)[C@H](Cc1ccccc1)NC(=O)[C@@H](Cc1ccc(O)cc1)NCCCc1ccccc1)C(=O)N1CCC[C@H]1C(=O)N[C@H](CO)C(=O)N[C@@H](CCC(N)=O)C(=O)N[C@@H](Cc1ccccc1)C(=O)N[C@H](C)C(=O)N1Cc2ccccc2C[C@H]1C(=O)N[C@@H](CO)C(=O)O
B7: YW-115 (peptide)
peptide: [dY]FL[Aze][dS]QF[dA][Tic]S-OH
modifications: N-terminus assumed
SMILES: CC(C)C[C@H](NC(=O)[C@H](Cc1ccccc1)NC(=O)[C@H](N)Cc1ccc(O)cc1)C(=O)N1CC[C@H]1C(=O)N[C@H](CO)C(=O)N[C@@H](CCC(N)=O)C(=O)N[C@@H](Cc1ccccc1)C(=O)N[C@H](C)C(=O)N1Cc2ccccc2C[C@H]1C(=O)N[C@@H](CO)C(=O)O
B8: YW-149 (peptide)
peptide: [dY]FLP[dS]QF[dA][dTic]S-OH
modifications: N-terminus assumed
SMILES: CC(C)C[C@H](NC(=O)[C@H](Cc1ccccc1)NC(=O)[C@H](N)Cc1ccc(O)cc1)C(=O)N1CCC[C@H]1C(=O)N[C@H](CO)C(=O)N[C@@H](CCC(N)=O)C(=O)N[C@@H](Cc1ccccc1)C(=O)N[C@H](C)C(=O)N1Cc2ccccc2C[C@@H]1C(=O)N[C@@H](CO)C(=O)O
B9: YW-151 (peptide)
peptide: [dY]FLP[dS]QF[dA][dTi1c]S-OH
modifications: reading uncertain; also: printed as (D-Tyr)-Phe-Leu-Pro-(D-Ser)-Gln-Phe-(D-Ala)-(D-Ti1c)-Ser
B10: YW-158 (peptide)
peptide: [dY]FLP[dS]QF[dA][TP5C]S-OH
modifications: N-terminus assumed
SMILES: CC(C)C[C@H](NC(=O)[C@H](Cc1ccccc1)NC(=O)[C@H](N)Cc1ccc(O)cc1)C(=O)N1CCC[C@H]1C(=O)N[C@H](CO)C(=O)N[C@@H](CCC(N)=O)C(=O)N[C@@H](Cc1ccccc1)C(=O)N[C@H](C)C(=O)N1Cc2sccc2C[C@H]1C(=O)N[C@@H](CO)C(=O)O
B11: YW-78 (peptide)
peptide: Diphenylacetyl-[dY]FLP[dS]QF[dA][Tic]S-OH
SMILES: CC(C)C[C@H](NC(=O)[C@H](Cc1ccccc1)NC(=O)[C@@H](Cc1ccc(O)cc1)NC(=O)C(c1ccccc1)c1ccccc1)C(=O)N1CCC[C@H]1C(=O)N[C@H](CO)C(=O)N[C@@H](CCC(N)=O)C(=O)N[C@@H](Cc1ccccc1)C(=O)N[C@H](C)C(=O)N1Cc2ccccc2C[C@H]1C(=O)N[C@@H](CO)C(=O)O
B12: YW-154 (peptide)
peptide: [dNMeY]FLP[dS]QF[dA][dTi1c]S-OH
modifications: reading uncertain; also: printed as (D-NMe-Tyr)-Phe-Leu-Pro-(D-Ser)-Gln-Phe-(D-Ala)-(D-Ti1c)-Ser
B13: YW-159 (peptide)
peptide: [dY]FLP[dS]QF[dA][TP6C]S-OH
modifications: N-terminus assumed
SMILES: CC(C)C[C@H](NC(=O)[C@H](Cc1ccccc1)NC(=O)[C@H](N)Cc1ccc(O)cc1)C(=O)N1CCC[C@H]1C(=O)N[C@H](CO)C(=O)N[C@@H](CCC(N)=O)C(=O)N[C@@H](Cc1ccccc1)C(=O)N[C@H](C)C(=O)N1Cc2sccc2C[C@H]1C(=O)N[C@@H](CO)C(=O)O
B14: YW-71 (peptide)
peptide: Hydrocinnamoyl-[dY]FLP[dS]QF[dA][Tic]S-OH
SMILES: CC(C)C[C@H](NC(=O)[C@H](Cc1ccccc1)NC(=O)[C@@H](Cc1ccc(O)cc1)NC(=O)CCc1ccccc1)C(=O)N1CCC[C@H]1C(=O)N[C@H](CO)C(=O)N[C@@H](CCC(N)=O)C(=O)N[C@@H](Cc1ccccc1)C(=O)N[C@H](C)C(=O)N1Cc2ccccc2C[C@H]1C(=O)N[C@@H](CO)C(=O)O

This assay deals with T1, human Chemokine like receptor 1 (human, UniProt Q99788 1-373).
T1 sequence (looked up): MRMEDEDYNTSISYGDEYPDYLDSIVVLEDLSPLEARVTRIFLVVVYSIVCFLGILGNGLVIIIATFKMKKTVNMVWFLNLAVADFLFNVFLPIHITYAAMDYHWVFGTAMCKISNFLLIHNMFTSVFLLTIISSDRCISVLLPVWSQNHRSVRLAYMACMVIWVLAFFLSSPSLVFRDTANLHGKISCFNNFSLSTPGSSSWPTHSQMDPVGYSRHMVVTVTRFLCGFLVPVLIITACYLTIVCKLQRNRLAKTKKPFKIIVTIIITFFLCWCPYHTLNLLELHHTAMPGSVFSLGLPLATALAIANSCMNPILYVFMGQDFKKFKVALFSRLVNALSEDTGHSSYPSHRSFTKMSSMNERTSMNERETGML
Briefly: cell-based or functional assay.
As for [dNMeY]F[NMeL][Thz][dS]QF[dA][Tic]S [YW-123], the “EC50 (µM), activation of Tango CMKLR1-bla U2OS cells” value (shortened to “EC50 (µM), activation”) was determined as 0.001 µM.
Consider [dY]F[Nva]P[dS]QF[dA][Tic]S [YW-196], for which the “EC50 (µM), activation” value was 0.039 µM.
Next, B1: 0.0068 µM; {3,5‑dihydroxybenzoyl}-[dY]FLP[dS]QF[dA][Tic]S-OH [YW-79]: 0.0047 µM.
As for B2, the “EC50 (µM), activation” value stood at 0.005 µM.
The same measure for B3: 0.0039 µM.
B4: the “EC50 (µM), activation” value was 0.0069 µM.
Next, B5: 0.0099 µM; B6: 0.0062 µM.
Take B7: the “EC50 (µM), activation” value was found to be 0.19 µM.
Take B8: the “EC50 (µM), activation” value was 0.021 µM.
Take B9: the “EC50 (µM), activation” value was 0.027 µM.
Turning to phenethylcarbamothioyl-[dY]FLP[dS]QF[dA][Tic]S-OH [YW-73], the “EC50 (µM), activation” value stood at 0.028 µM.
For the molecule B10, the “EC50 (µM), activation” value turned out to be 0.065 µM.
Turning to B11, the “EC50 (µM), activation” value stood at 0.026 µM.
Regarding {4‑phenylbutanoyl}-[dY]FLP[dS]QF[dA][Tic]S-OH [YW-75], the “EC50 (µM), activation” value is 0.05 µM.
As to {5‑phenylpentanoyl}-[dY]FLP[dS]QF[dA][Tic]S-OH [YW-76], the “EC50 (µM), activation” value turned out to be 0.043 µM.
Consider [dY]FLP[dS]QF[dA][Ti1c]S-OH [YW-150], for which the “EC50 (µM), activation” value came to 0.062 µM.
The same measure for [dNMeY]F[NMeL][Thz′][dS]QF[dA][Tic][NMeS] (reading uncertain) [YW-124]: 0.0013 µM.
For the molecule {4‑biphenylacetyl}-[dY]FLP[dS]QF[dA][Tic]S-OH [YW-77], the “EC50 (µM), activation” value was 0.053 µM.
The same measure for B12: 0.034 µM.
In the case of B13, the “EC50 (µM), activation” value came to 0.018 µM.
With phenethylcarbamoyl-[dY]FLP[dS]QF[dA][Tic]S-OH [YW-72], the “EC50 (µM), activation” value is 0.045 µM.
The same measure for {2,3‑dihydroxybenzoyl}-[dY]FLP[dS]QF[dA][Tic]S-OH [YW-127]: 0.01 µM.
Consider [dY]F[Nle]P[dS]QF[dA][Tic]S [YW-197], for which the “EC50 (µM), activation” value amounted to 0.01 µM.
Regarding B14, the “EC50 (µM), activation” value worked out at 0.031 µM.
